We go through eight molecules from article PMC11077971 (mBio, 2024).

Data set [1] has as its target T1, ACC complex (biotinylated BC1 with CTβ-CTα) (Chloroflexus aurantiacus, UniProt A9WBQ8+A9WBQ9).
T1 construct: gene accD; His6-tagged, E. coli BL21(DE3); with Biotin carboxylase (acetyl-CoA carboxylase, biotin carboxylase; fused BC-BCCP)
In words: HPLC and MS detection of malonyl-CoA. Format: biochemical. As to conditions: 10 mM acetyl-CoA, 40 mM bicarbonate, 1 mM ATP, 5 mM MgCl2, pH 9.0, RT.

Another data set addresses T2, E. coli BirA (Escherichia coli, UniProt P06709).
T2 construct: Met1-Lys321, N-terminal His6 tag (pET28a), E. coli BL21(DE3)
Briefly: HPLC-MS of biotinylated BCCP core. The class given is biochemical. As to conditions: apo-BCCP core (BC1) as acceptor protein, 10 µM biotin, 0.3 mM ATP, 5 mM MgCl2, pH 8.0, 37 °C.

Data set [2] concerns the molecule itself. In words: AUC + SEC; sedimentation velocity, 42,000 rpm, 20°C, initial A280 ~0.7, Sedfit; gel filtration on a Superdex 200 column.
Substrate in data set [3]: O=C(O)CCCC[C@@H]1SC[C@@H]2NC(=O)N[C@@H]21
In words: purified protein. As to conditions: apparent Km, free biotin as carboxyl acceptor, 40 mM bicarbonate, 2 mM ATP, 8 mM MgCl2, 100 mM Hepes pH 8.0, 25 °C.

Substrate in data set [4]: O=C(O)O
In words: purified protein. As to conditions: apparent Km, 40 mM biotin, 2 mM ATP, 8 mM MgCl2, 100 mM Hepes pH 8.0, 25 °C.

Data set [5] deals with the molecule itself. In words: crystal structure; hanging-drop vapor diffusion at 16°C; BC1 at 6.5 mg/mL, BC2 at 10 mg/mL in 20 mM Tris-HCl pH 8.0, 150 mM NaCl, 2 mM MgCl2; molecular replacement.

T2 sequence (P06709 whole entry): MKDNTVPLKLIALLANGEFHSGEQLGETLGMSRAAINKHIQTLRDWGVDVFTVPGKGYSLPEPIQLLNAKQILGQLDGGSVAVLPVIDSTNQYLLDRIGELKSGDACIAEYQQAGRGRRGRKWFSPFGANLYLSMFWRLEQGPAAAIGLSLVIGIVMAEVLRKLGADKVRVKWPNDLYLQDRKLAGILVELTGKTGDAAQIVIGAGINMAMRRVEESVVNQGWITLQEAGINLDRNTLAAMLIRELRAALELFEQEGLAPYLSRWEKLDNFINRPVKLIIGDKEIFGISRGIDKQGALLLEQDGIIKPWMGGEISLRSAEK
T1 sequence (A9WBQ8 entry or part of it, one chain of several): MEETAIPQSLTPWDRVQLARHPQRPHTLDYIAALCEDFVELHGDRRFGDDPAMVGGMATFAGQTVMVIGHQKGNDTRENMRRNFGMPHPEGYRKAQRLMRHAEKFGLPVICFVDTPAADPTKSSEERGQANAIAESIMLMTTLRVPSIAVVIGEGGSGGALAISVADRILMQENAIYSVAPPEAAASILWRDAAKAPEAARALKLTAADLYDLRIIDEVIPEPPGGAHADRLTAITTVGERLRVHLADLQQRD
T1 sequence (A9WBQ9 24-305, one chain of several): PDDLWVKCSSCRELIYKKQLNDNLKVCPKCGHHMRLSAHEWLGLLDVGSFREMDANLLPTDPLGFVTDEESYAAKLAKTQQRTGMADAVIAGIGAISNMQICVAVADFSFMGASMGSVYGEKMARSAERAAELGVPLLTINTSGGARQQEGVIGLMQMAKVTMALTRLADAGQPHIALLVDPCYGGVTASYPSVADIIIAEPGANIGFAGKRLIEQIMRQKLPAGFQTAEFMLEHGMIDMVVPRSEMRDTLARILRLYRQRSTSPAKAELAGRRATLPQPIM

Turning to `CC(=O)SCCNC(=O)CCNC(=O)[C@H](O)C(C)(C)COP(=O)(O)OP(=O)(O)OC[C@H]1O[C@@H](n2cnc3c(N)ncnc32)[C@H](O)[C@@H]1OP(=O)(O)O` [acetyl-CoA], the “HPLC and MS detection of malonyl-CoA” value in data set [1] is “the reconstituted ACC complex is enzymatically active”.

In the case of `O=C(O)CCCC[C@@H]1SC[C@@H]2NC(=O)N[C@@H]21` [biotin], at E. coli BirA, the “HPLC-MS of biotinylated BCCP core” value was “BC1-BCCP domain can be biotinylated by both E. coli and C. aurantiacus BirA”.

B1: His6-BC1ΔBCCP^Core (Met1-Lys510) (domain or fragment, Chloroflexus aurantiacus J-10-fl, UniProt A9W9X0 1-510, looked up)
chain: MFRTILVANRGEIALRVMRACRELGLRCVAVYSEADRDAPHVAYADDAFLIGPPSPAESYLNIDAIIRAAKATGAEAIHPGYGFLAENASFVRAVTAAGLIFIGPPAEAMERMGGKTAARREATAAGVPVVPGVLEPVTDAAEVRRLGKEFGYPIAIKAVGGGGGRGLRVVRSPEEVDEAFAAARREAEVAFKNGELYVEKYLDDPRHIEIQVLADRYGNAVALGERDCSVQRRHQKLIEECPSPALTPELRAEMGAAAVRLAKAVGYVSAGTLEFLFQDGRYYFLEMNTRIQVEHTVTEMVYGIDLVAAQIRIAQGEKLWFKQEDVVPRGHAIECRINAEDPLHNFRPALGTIGEYHEPVGFGVRVDSGVRAYYTVPSHYDSLLAKLITWGSDRQEAIARMRRALAEYRIEGVTTIIPFHQAALEHPVFTAGAATVNFIPRHPELFSRAAELTPPTAASAGAEPAPEPRRFTIEVNGRRFGVAVFGDGMNATPVASPSRSAPARRAAPK
notes: biotin carboxylase isoform BC1 without the BCCP core, Chloroflexus aurantiacus J-10-fl; The cloning of this construct is not described in the methods; source: E. coli BL21(DE3), purified
With B1, the “stoichiometry N” value in data set [2] was 4.

B2: BC1ΔBCCP^β-hairpin (BC1 lacking Thr473-Gly486) (enzyme, Chloroflexus aurantiacus J-10-fl, UniProt A9W9X0 1-596, looked up)
chain: MFRTILVANRGEIALRVMRACRELGLRCVAVYSEADRDAPHVAYADDAFLIGPPSPAESYLNIDAIIRAAKATGAEAIHPGYGFLAENASFVRAVTAAGLIFIGPPAEAMERMGGKTAARREATAAGVPVVPGVLEPVTDAAEVRRLGKEFGYPIAIKAVGGGGGRGLRVVRSPEEVDEAFAAARREAEVAFKNGELYVEKYLDDPRHIEIQVLADRYGNAVALGERDCSVQRRHQKLIEECPSPALTPELRAEMGAAAVRLAKAVGYVSAGTLEFLFQDGRYYFLEMNTRIQVEHTVTEMVYGIDLVAAQIRIAQGEKLWFKQEDVVPRGHAIECRINAEDPLHNFRPALGTIGEYHEPVGFGVRVDSGVRAYYTVPSHYDSLLAKLITWGSDRQEAIARMRRALAEYRIEGVTTIIPFHQAALEHPVFTAGAATVNFIPRHPELFSRAAELTPPTAASAGAEPAPEPRRFGDGMNATPVASPSRSAPARRAAPKKTTLAAPVDAVISPIQGRVVAVRVAHGQQVEAGQVLFIVEAMKMENEITAPHSGTIAEVRVEVGTTVEAGAMLATYQNTANNTNGK
notes: biotin carboxylase isoform BC1, Chloroflexus aurantiacus J-10-fl, with the β-hairpin motif Thr473-Gly486 deleted; Vector pET28a-bc1Δbccp^β-hairpin; source: E. coli BL21(DE3), purified
On to B2, for which the “stoichiometry N” value in data set [2] stood at 2.

B3: His6-BC1ΔBCCP (Met1-Glu452) (domain or fragment, Chloroflexus aurantiacus J-10-fl, UniProt A9W9X0 1-452, looked up)
chain: MFRTILVANRGEIALRVMRACRELGLRCVAVYSEADRDAPHVAYADDAFLIGPPSPAESYLNIDAIIRAAKATGAEAIHPGYGFLAENASFVRAVTAAGLIFIGPPAEAMERMGGKTAARREATAAGVPVVPGVLEPVTDAAEVRRLGKEFGYPIAIKAVGGGGGRGLRVVRSPEEVDEAFAAARREAEVAFKNGELYVEKYLDDPRHIEIQVLADRYGNAVALGERDCSVQRRHQKLIEECPSPALTPELRAEMGAAAVRLAKAVGYVSAGTLEFLFQDGRYYFLEMNTRIQVEHTVTEMVYGIDLVAAQIRIAQGEKLWFKQEDVVPRGHAIECRINAEDPLHNFRPALGTIGEYHEPVGFGVRVDSGVRAYYTVPSHYDSLLAKLITWGSDRQEAIARMRRALAEYRIEGVTTIIPFHQAALEHPVFTAGAATVNFIPRHPELFSRAAE
notes: BC domain of biotin carboxylase isoform BC1, Chloroflexus aurantiacus J-10-fl; also called BCCP-truncated BC1 mutant; not shown: His6, N-terminal, kept
For the molecule B3, the “stoichiometry N” value in data set [2] worked out at 2. For the same molecule, in the data set “purified protein [3]”, the Km stood at 17.1 ± 1.2 mM, the kcat is 15.6 s⁻¹ and the kcat/Km worked out at 920 M⁻¹ s⁻¹. For the same molecule, in the data set “purified protein [4]”, the Michaelis-Menten constant (Km) stood at 7.4 ± 0.3 mM, the kcat was 14.3 s⁻¹ and the kcat/Km was 1930 M⁻¹ s⁻¹.

B4: Chloroflexus aurantiacus BC2 (His6-tagged, Met1-Val455) (enzyme, Chloroflexus aurantiacus J-10-fl, UniProt A9WKH8 1-455, looked up)
chain: MIRKVLVANRGEIAVRIIRACQELGIRTVVAYSTADRDSLAVRLADEAVCIGPPPAAKSYLNAPALISAALVSGCDAIHPGYGFLSENPYFAEMCADCKLTFIGPPPEPIRLMGDKAIGRETMRKAGVPTVPGSDGEVRSLEEAIDVARQIGYPVLLKPSGGGGGRGMRVAYDEADLQRAFPTARAEAEAAFGNGALLLEKYLTRVRHVEIQVLADQYGHAIHLGERDCSAQRRHQKIVEEAPSPAVTPELRERMGADAVRGIKSIGYVNAGTLEFLLDQDGNYYFIEMNTRIQVEHPVTEQVTGIDLVRWQLLIASGERLTLRQEDIKITRHAIECRINAEDPERDFLPASGEVEFYLPPGGPGVRVDSHLYSGYTPPGTYDSLLAKIITFGDTRDEALNRMRRALNECVITGIKTTIPFQLALIDDPEFRAGRIHTGYVAELLRQWKETLNPV
notes: biotin carboxylase isoform BC2, Chloroflexus aurantiacus J-10-fl, 455 residues; Met1-Val455 is called full-length; also called His6-BC2; biotin carboxylase isoform 2; not shown: His6, N-terminal, kept
Turning to B4, in “purified protein [3]”, the Km is recorded as 14.8 ± 2.2 mM, the kcat turned out to be 16.7 s⁻¹ and the kcat/Km stood at 1160 M⁻¹ s⁻¹. In addition, in “purified protein [4]”, the Km was 6.7 ± 0.9 mM, the kcat was found to be 16.2 s⁻¹ and the kcat/Km is 2380 M⁻¹ s⁻¹. In addition, the “stoichiometry N” value in data set [5] was found to be 2.

B5: BC1 (Chloroflexus aurantiacus J-10-fl) (protein)
chain: MFRTILVANRGEIALRVMRACRELGLRCVAVYSEADRDAPHVAYADDAFLIGPPSPAESYLNIDAIIRAAKATGAEAIHPGYGFLAENASFVRAVTAAGLIFIGPPAEAMERMGGKTAARREATAAGVPVVPGVLEPVTDAAEVRRLGKEFGYPIAIKAVGGGGGRGLRVVRSPEEVDEAFAAARREAEVAFKNGELYVEKYLDDPRHIEIQVLADRYGNAVALGERDCSVQRRHQKLIEECPSPALTPELRAEMGAAAVRLAKAVGYVSAGTLEFLFQDGRYYFLEMNTRIQVEHTVTEMVYGIDLVAAQIRIAQGEKLWFKQEDVVPRGHAIECRINAEDPLHNFRPALGTIGEYHEPVGFGVRVDSGVRAYYTVPSHYDSLLAKLITWGSDRQEAIARMRRALAEYRIEGVTTIIPFHQAALEHPVFTAGAATVNFIPRHPELFSRAAELTPPTAASAGAEPAPEPRRFTIEVNGRRFGVAVFGDGMNATPVASPSRSAPARRAAPKKTTLAAPVDAVISPIQGRVVAVRVAHGQQVEAGQVLFIVEAMKMENEITAPHSGTIAEVRVEVGTTVEAGAMLATYQNTANNTNGK
As for B5, in “purified protein [3]”, the Km is 11.4 ± 0.2 mM, the kcat is 19.1 s⁻¹ and the kcat/Km stood at 1670 M⁻¹ s⁻¹. In the data set “purified protein [4]”, the Km was determined as 4.5 ± 0.1 mM, the kcat stood at 20.7 s⁻¹ and the kcat/Km amounted to 4560 M⁻¹ s⁻¹.

B6: Chloroflexus aurantiacus BC1 (His6-tagged, Met1-Lys596), not biotinylated in vitro (enzyme, Chloroflexus aurantiacus J-10-fl, UniProt A9W9X0 1-596, looked up)
chain: B5 chain
notes: biotin carboxylase isoform BC1 with fused BC (Met1-Glu452) and BCCP (Ala459-Lys596) domains, Chloroflexus aurantiacus J-10-fl, 596 residues; the pull-down control was; also called His6-BC1; unbiotinylated BC1; source: for the pull-down passed over streptavidin agarose to remove the biotinylated fraction; not shown: His6, N-terminal, kept
As for B6, in data set [5], the “stoichiometry N” value is 4.
